The values that follow come from PMC8187409, “The zinc-finger protein Red1 orchestrates MTREC submodules and binds the Mtl1 helicase arch domain” (Nature Communications, 2021).

Experiment [1] addresses ZZ-ctRed1_(spep) (residues 1040–1091) (Chaetomium thermophilum). Nature of the experiment: ITC; MicroCal PEAQ-ITC, 25 °C, 20 mM HEPES pH 7.5, 150 mM NaCl; 30 µM ZZ-ctRed1spep in the cell, 250 µM ctMtr4SA in the syringe; duplicate. In general terms: In ITC the heat of successive injections is recorded.
Experiment [2] deals with T1, full-length spArs2 (in vitro binding) (S. pombe, UniProt O94326 1-609).
T1 construct: Ars2, S. pombe; source: E. coli (vectors for expression in E. coli)
T1 sequence (looked up): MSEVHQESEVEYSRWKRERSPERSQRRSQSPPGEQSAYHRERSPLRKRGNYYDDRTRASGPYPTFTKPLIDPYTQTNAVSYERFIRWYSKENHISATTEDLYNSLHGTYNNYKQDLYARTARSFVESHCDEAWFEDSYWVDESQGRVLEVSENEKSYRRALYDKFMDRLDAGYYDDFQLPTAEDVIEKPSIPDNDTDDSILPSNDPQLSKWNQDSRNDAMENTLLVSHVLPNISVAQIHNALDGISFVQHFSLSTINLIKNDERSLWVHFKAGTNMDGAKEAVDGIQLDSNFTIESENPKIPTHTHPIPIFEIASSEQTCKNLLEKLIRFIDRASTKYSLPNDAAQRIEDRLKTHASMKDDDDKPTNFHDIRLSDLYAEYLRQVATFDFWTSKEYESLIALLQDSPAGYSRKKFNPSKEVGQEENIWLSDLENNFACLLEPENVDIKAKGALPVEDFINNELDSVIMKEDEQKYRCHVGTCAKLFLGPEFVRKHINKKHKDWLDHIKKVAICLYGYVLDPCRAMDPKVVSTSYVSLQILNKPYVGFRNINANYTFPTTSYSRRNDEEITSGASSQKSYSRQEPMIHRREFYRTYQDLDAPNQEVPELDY
Nature of the experiment: pull-down; GST pull-down: bait with 1.5 molar excess of prey, 20 mM HEPES pH 7.5, 150 mM NaCl (or higher, up to 600 mM or 1.5 M in the washes), 5% glycerol, 0.1% NP-40, 4 °C, glutathione agarose; SDS-PAGE, Coomassie. The following applies: both partners purified.

As for “ctMtr4SA (residues 654–865), purified for ITC (domain or fragment)”, in experiment [1], the Kd – broadly, the equilibrium constant for the complex coming apart – was 115 nM and the stoichiometry N (as a rule, the number of molecules, sites or subunits per partner or assembly) was 1.

B1: GST-tagged spRed1 peptide (SDKEDGEISEDDP) (peptide)
chain: SDKEDGEISEDDP
notes: source: E. coli (vectors for expression in E. coli)
In the case of B1, in experiment [2], the binding result is given as “binds”.
